In data set [1] the target is T1, OsPIL15 (Oryza sativa, UniProt Q0JNI9 1-637).
T1 sequence: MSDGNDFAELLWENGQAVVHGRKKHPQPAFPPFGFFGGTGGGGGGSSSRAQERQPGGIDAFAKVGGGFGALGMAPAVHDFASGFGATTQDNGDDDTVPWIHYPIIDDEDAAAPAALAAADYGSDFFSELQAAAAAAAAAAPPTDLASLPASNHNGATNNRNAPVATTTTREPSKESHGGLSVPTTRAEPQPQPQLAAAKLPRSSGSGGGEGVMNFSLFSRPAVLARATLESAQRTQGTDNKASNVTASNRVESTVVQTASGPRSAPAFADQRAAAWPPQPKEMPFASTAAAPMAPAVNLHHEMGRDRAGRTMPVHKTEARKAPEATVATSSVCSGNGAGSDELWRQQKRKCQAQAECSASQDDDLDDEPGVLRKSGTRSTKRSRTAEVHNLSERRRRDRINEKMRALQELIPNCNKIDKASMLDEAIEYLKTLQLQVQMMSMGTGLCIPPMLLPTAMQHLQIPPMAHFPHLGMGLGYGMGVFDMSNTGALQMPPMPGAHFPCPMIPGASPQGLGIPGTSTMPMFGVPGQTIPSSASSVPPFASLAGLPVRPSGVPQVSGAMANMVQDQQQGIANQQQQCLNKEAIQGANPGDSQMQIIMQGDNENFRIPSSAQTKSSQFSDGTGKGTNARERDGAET
In words: competition.

The target of data set [2] is T1, OsPIL15. In words: competition. The source holds these as a separate data set.

Read-outs that look alike come from different tables or passages of the source.

We go through two molecules from PMC7187366.

B1: Probe Bm (mutant G-box) (dsDNA)
DNA 1: ATTTTCCTGACTTCACTATGACTTGTT
DNA 2: AACAAGTCATAGTGAAGTCAGGAAAAT
As to B1, in the data set with OsPIL15 [1], the binding result is reported as “no binding”.

B2: Probe Am (mutant G-boxes) (dsDNA)
DNA 1: TGATCTGACTTTAAACCGGTGACTTTCGCC
DNA 2: GGCGAAAGTCACCGGTTTAAAGTCAGATCA
Regarding B2, the binding result with OsPIL15 [2] was “no binding”.
